Test results published in US10787640B2, “Producing mesodermal cell types and methods of using the same” (The Board of Trustees of the Leland Stanford Junior …, priority 2015, dated 2020).

Columns and labels:
Assay type in all cases: cell-based, human
[1] = test system: day 5 hematopoietic intermediates; assay: Day 5-7 continued differentiation of hematopoietic intermediates, factor withholding
Method: (§1) SOX17^mCherry/+ H9 hESCs (referred to as SOX17-mCherry hESCs throughout this study) were routinely propagated in mTeSR1 (StemCell Technologies)+1% penicillin/streptomycin. They were passaged ˜1:12-1:25 as fine clumps using Accutase (Gibco) onto plates precoated with a Geltrex substratum (Gibco) in mTeSR1 medium supplemented with thiazovivin ([…]; a ROCK inhibitor). After overnight plating, hESCs were washed (DMEM/F12) and differentiated towards posterior PS using BMP4 (15-40 ng/mL, R&D Systems), CHIR99021 ([…]), FGF2 (20 ng/mL, Invitrogen) and PIK90 (100 nM, Calbiochem) for 24 hours, with the optional inclusion of Activin (30 ng/mL, R&D Systems) to induce mid PS. Day 1 mid or posterior PS was subsequently washed (DMEM/F12) and further differentiated using BMP4 (40 ng/mL), GDC-0941 (0.25-2.5 μM, Cellagen Technology), Forskolin (10 μM, Tocris), SB-505124 ([…]), VEGF (100 ng/mL, R&D Systems), XAV939 (1 μM, Tocris) and ascorbic acid-2-phosphate (200 μg/mL, Sigma) for 24 hours. Day 2 cultures were further directed into the definitive hematopoietic lineage/hemogenic precursors by Activin A (15 ng/mL), GDC-0941 (0.25-2.5 μM), VEGF (100 ng/mL), XAV939 (1 μM) and ascorbic acid-2-phosphate (200 μg/mL) for 24 hours. Day 3 definitive hematopoietic progenitors were subsequently differentiated into early Runx1^lowGfi1^low hemogenic intermediates through day 4-5 treatment with BMP4 (50 ng/mL), TTNPB (500 nM), VEGF (100 ng/mL) and XAV939 (1 μM) for 48 hours, supplemented with SB-505124 (2 μM) on day 5. Day 5 populations were then dissociated into single cells, counted and reaggregated in individual wells of a low-adhesion V-bottom or U-bottom 96-well plate (e.g., Thermo Fisher, catalog no. 249952) with ˜15,000-20,000 cells seeded per well. Aggregates were cultured for 48 additional hours until day 7 in BMP4 (50 ng/mL), TTNPB (500 nM), VEGF (100 ng/mL), XAV939 (1 μM), SB-505124 (2 μM), SCF (25-50 ng/mL, R&D Systems), IL6 (10 ng/mL, R&D Systems) and IL6RA (250-1000 ng/mL, R&D Systems). All differentiation was conducted in serum-free CDM2 fully-defined basal media.

hESCs = assay: Downstream mesoderm potential of PS induced with Activin or BMP4
Method: Subsequently, day 1 anterior primitive streak was briefly washed (DMEM/F12) and differentiated towards day 2 paraxial mesoderm for 24 hours (1 μM A-83-01+3 μM CHIR99021+250 nM LDN-193189+20 ng/mL FGF2). Separately, day 1 mid primitive streak was differentiated towards day 2 lateral mesoderm for 24 hours (1 μM A-83-01+30 ng/mL BMP4+1 μM C59; with 2 μM SB-505124 sometimes used instead of A-83-01).
E) To assess whether inducing PS in the presence of TGFβ signaling altered its downstream potential to form different kinds of mesoderm, (i) H7 hESCs were differentiated into PS with CHIR99021+FGF2+PIK90 (CFK) for 24 hours in the presence or absence of increasing amounts of Activin (10-100 ng/mL), and then were transferred into paraxial mesoderm induction conditions (A-83-01+CHIR99021+DM3189+FGF2) for 24 hrs, and qPCR was conducted or (ii) H7 hESCs were differentiated into PS with BMP4 (10 ng/mL)+CHIR99021+FGF2+PIK90 (B10CFK) for 24 hours in the presence or absence of increasing amounts of Activin (10-100 ng/mL), and then were transferred into lateral/cardiac mesoderm inductions (A-83-01+BMP4+C59) for 24 hours and qPCR was conducted. […] F) To assess whether inducing PS in the presence of BMP signaling altered its downstream potential to form different kinds of mesoderm, H7 hESCs were differentiated into PS with Activin (10 ng/mL)+CHIR99021+FGF2+PIK90 (A10CFK) for 24 hours in the presence of absence of increasing amounts of BMP4 (1-40 ng/mL), and then were (i) transferred into paraxial mesoderm induction conditions (A-83-01+CHIR99021+DM3189+FGF2) for 24 hrs, and qPCR was conducted or were (ii) transferred into lateral/cardiac mesoderm inductions (A-83-01+BMP4+C59) for 24 hours and qPCR was conducted. […] G) H7 hESCs were differentiated into anterior primitive streak (30 ng/mL Activin+4 μM CHIR99021+20 ng/mL FGF2+100 nM PIK90) in the presence or absence of BMP4 (10 ng/mL) for 24 hours, and then transferred into paraxial mesoderm induction conditions for 24 hours before TBX6 immunostaining was conducted. […] H) NKX2.5-GFP hESCs were differentiated into primitive streak with BMP4+CHIR99021+FGF2+PIK90 for 24 hours in the presence or absence of increasing doses of Activin (10-100 ng/mL), and then transferred into suboptimal lateral/cardiac mesoderm induction conditions (A-83-01+BMP4+C59, without FGF2) for 48 hours and FACS was performed after 72 hours of total differentiation to quantify NKX2.5-GFP^+ cell percentages. […] I) Efficient MIXL11^+ PS specification is highly reproducible in both anterior and mid PS differentiation conditions (“APS” and “MPS”, respectively) across 4 independent differentiation experiments, as assayed by a MIXL1-GFP knock-in reporter hESC line. Each circle or triangle represents an individual experiment and the average differentiation efficiency attained across all experiments is indicated.

[2] = test system: day 3 hemogenic precursors; assay: Hemogenic precursors into day 5 hematopoietic intermediates; conditions: withdrawal of the factor from BMP, VEGF, XAV939, TTNPB
Method: as §1

SOX17-mCherry hESCs = assay: Hematopoietic mesoderm and SOX17+CD34+ hemogenic precursor specification
Method: as §1

## Cc1cccc(-c2[nH]c(C(C)(C)C)nc2-c2ccc3c(c2)OCO3)n1 [SB-505124, 2-[4-(1,3-Benzodioxol-5-yl)-2-(1,1-dimethylethyl)-1H-imidazol-5-yl]-6-methyl-pyridine]
[1]; individually withholding the factor from the 8 factors, 48 hours
  GFI1B expression: strongly diminished

B1: BMP4: BMP family ligand, BMP agonist (protein, UniProt P12644 293-408, looked up)
Bone morphogenetic protein 4: SPKHHSQRARKKNKNCRRHSLYVDFSDVGWNDWIVAPPGYQAFYCHGDCPFPLADHLNSTNHAIVQTLVNSVNSSIPKACCVPTELSAISMLYLDEYDKVVLKNYQEMVVEGCGCR
hESCs; PS induced in A10CFK with BMP4 (1-40 ng/mL)
  paraxial mesoderm potential of PS (qPCR): strongly blocked paraxial mesoderm potential
hESCs; PS induced in A10CFK with high BMP4 (40 ng/mL)
  lateral/cardiac mesoderm potential of PS (qPCR): maximized lateral/cardiac mesoderm potential
hESCs; anterior PS induced with BMP4 (10 ng/mL), 24 hours
  TBX6 immunostaining after paraxial mesoderm induction: larger numbers of TBX6^− clusters of non-paraxial mesoderm cells
[1]; withdrawal of the factor
  hematopoietic or venous gene expression: minimally effected hematopoietic or venous gene expression
[2]
  RUNX1 expression by day 5: crippled RUNX1 expression

B2: Activin: TGFβ agonist (protein, UniProt P08476 311-426, looked up)
Inhibin beta A chain: GLECDGKVNICCKKQFFVSFKDIGWNDWIIAPSGYHANYCEGECPSHIAGTSGSSLSFHSTVINHYRMRGHSPFANLKSCCVPTKLRPMSMLYYDDGQNIIKKDIQNMIVEECGCS
modifications: Inhibin beta A chain
notes: TGFβ agonist
SOX17-mCherry hESCs; Activin 30 ng/mL during PS induction
  downstream ability to acquire hematopoietic fate: significantly enhanced the downstream ability of cells to acquire hematopoietic fate
SOX17-mCherry hESCs; treatment on day 2-3, 24 hours
  SOX17+ cells formed by day 3: doubled the generation of SOX17^+ cells
hESCs; PS induced in B10CFK with lower Activin (e.g., 10 ng/mL)
  lateral/cardiac mesoderm potential of PS (qPCR): had maximal lateral/cardiac mesoderm potential
hESCs; PS induced in CFK with higher Activin doses (e.g., 30 ng/mL)
  paraxial mesoderm potential of PS (qPCR): instilled paraxial mesoderm potential
hESCs; higher Activin doses (50-100 ng/mL) during PS induction
  NKX2.5-GFP+ cell percentages (FACS, 72 hours): less effective
hESCs; low to moderate Activin during PS induction
  NKX2.5-GFP+ cell percentages (FACS, 72 hours): maximizes subsequent differentiation into NKX2.5-GFP^+ cardiac mesoderm
